Source: article PMC4491180, “Grb2 monomer–dimer equilibrium determines normal versus oncogenic function” (Nature Communications, 2015)
Where no end group is shown, it is not given here. [ ]: non-standard residue; d: D form. pY = N[C@@H](Cc1ccc(OP(=O)(O)O)cc1)C(=O)O

What was measured:
[1] = biological target: T1, bacterial GFP-tagged Grb2 on GFP-trap beads (smFLIM) (UniProt P62993 1-217); experiment: FRET or BRET; smFLIM: GFP–Grb2 on GFP-trap beads, RFP–Grb2 added for 1 h, 20 mM Tris-HCl, 50 mM NaCl, pH 8.0; then 10 μM phospho-Shc peptide for an hour; conditions: both partners purified
T1 construct: full-length Grb2; The second copy (FRET acceptor, added in solution) carried RFP (mRFP) instead of GFP; By the order of the cloning sites the fluorescent protein lies before Grb2; pET28a cut at NdeI may add an N-terminal His tag (surmised); also called GFP–Grb2; RFP–Grb2; source: E. coli (pET28a construct)
T1 sequence (P62993 whole entry): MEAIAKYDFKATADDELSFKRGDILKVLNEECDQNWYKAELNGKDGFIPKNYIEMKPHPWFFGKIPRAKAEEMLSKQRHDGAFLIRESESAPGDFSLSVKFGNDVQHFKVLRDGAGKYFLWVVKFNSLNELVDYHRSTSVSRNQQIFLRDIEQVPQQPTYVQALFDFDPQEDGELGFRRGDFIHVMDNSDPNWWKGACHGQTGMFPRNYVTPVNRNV

[2] = biological target: T2, wild-type Grb2 (growth factor receptor-bound protein 2), bacterially expressed and purified (UniProt P62993 1-217, Atto488 on the N-terminus of the labelled copy (100 nM); the titrated copy unlabelled); experiment: MST; monomer–dimer equilibrium of Grb2 in the presence of a saturating concentration of pShc peptide; conditions: both partners purified
T2 construct: cloned into a modified pET28a with a TEV site; also called ^WTGrb2; dGrb2
T2 sequence (P62993 whole entry): as above

B1: phospho-Shc peptide (peptide)
peptide: EEPPDHQ[pY]YNDFPGK
notes: Printed as EEPPDHQ(pY)YN-DFPGK; also called pShc; source: synthetic peptide, bought: GenScript
What does the source list for B1?
binding result [1]: binds; binding result [2]: binds
